Assay results reported in publication PMC5444442, “Flagellin peptide flg22 gains access to long-distance trafficking in Arabidopsis via its receptor, FLS2” (Journal of Experimental Botany, 2017).
Peptide text beside a SMILES is read from it. * marks the point of attachment. 5TAMRA = CN(C)c1ccc2c(c1)Oc1cc(N(C)C)ccc1C21OC(=O)c2cc(C(=O)*)ccc21; 5FAM = O=C1OC2(c3ccc(O)cc3Oc3cc(O)ccc32)c2ccc(C(=O)*)cc21; Cbz = O=C(OCc1ccccc1)*

Columns and labels:
Arabidopsis plants [1] = experiment: Long-distance transport after surface application of radiolabeled peptide; assay type: in vivo, Arabidopsis thaliana; details: control; 1 μl droplet of Na125I (1 × 10^6 cpm) on abaxial side of one leaf; 3 h; five plants, three experiments, P=0.7
Protocol: We applied 0.5–1 µM (specific activity 17 µCi µg^–1) ^125I-Y-flg22 or ^125I-Y-scrambled peptide in 10 mM MES pH 5.7 with 0.01% Tween-20 as a 1 µl droplet to the abaxial side of one mature leaf of 4-week-old soil-grown Arabidopsis plants and incubated for 3 h. For the control, 1 µl of 1.8 µM Na^125I (2.2 µCi µg^–1) in 5 mM NaOH–0.5 mM NaHSO2 (to prevent volatilization) with 0.005% Tween-20 was applied in the same way. Whole plants were sealed in plastic (Pinnacle Cover-All, Total Care), additionally contained in a plastic bag, and exposed for 5 d to phosphor screens for autoradiography.
(§1) [^14C]sucrose radioactivity was quantified in a scintillation counter.

Arabidopsis plants [2] = experiment: Long-distance transport after surface application of fluorescent peptide; assay type: in vivo, Arabidopsis thaliana; details: 1 d
Protocol: We applied 10–20 μl of 5 μM TAMRA–flg22 (without or with inhibitors: 50 μM MG132 or 50 mM BDM) to a filter paper disc placed on the adaxial side of one leaf of in vitro-grown Arabidopsis plants and distal tissues were imaged by confocal microscopy after 1 d. For experiments with mixed peptides, 5 μM TAMRA–flg22 + 10 μM FAM–scrambled peptides were used.
as §1

Arabidopsis leaf discs = experiment: Subcellular localization, uptake and accumulation of flg22 in leaf discs; assay type: cell-based, Arabidopsis thaliana; details: for initial (up to 1.5 h) uptake/binding: leaf discs floated on 5 μM peptide, confocal fluorescence; for non-specific uptake in presence of active flg22: Col leaf discs floated overnight on 2 μM FAM–scrambled peptide or 2 μM fluorescein mixed with 1 μM TAMRA–flg22 or 2 μM flg22, n≥8; for number of foci overlapping with FM4-64 / total number of green (Ff22) fluorescent foci: 18 picture areas (20 μm × 20 μm)
Protocol: Leaf discs were floated (abaxial side down) on 1–5 μM TAMRA–flg22 or 5–10 μM FAM–flg22 solution (in water) at room temperature for the indicated time (lower concentrations were used for overnight treatments). Inhibitors that affect endocytosis, MG132 (Sigma-Aldrich, 50 μM) or 2,3-butanedione monoxime (BDM; Sigma-Aldrich, 50 mM) were added at the same time as the peptides. FM4-64 (Invitrogen, 6–8 μM) or 2′,7′-bis-(2-carboxyethyl)-5-(and-6)-carboxyfluorescein (BCECF)-AM (cleaved by an endogenous plant esterase to BCECF, Invitrogen, 20–40 μM) mixed with peptide solution was vacuum infiltrated for 2 min into leaf discs ([Kang et al., 2014]) prior to incubation (floating on peptide/dye solution) for the indicated time. In some experiments FAM–Y-flg22 was used with results similar to FAM–flg22.
For experiments with mixed peptides, leaf discs were floated for the indicated time on 2 μM FAM–flg22, FAM–scrambled peptide or fluorescein mixed with 1 μM TAMRA–flg22. In all experiments, leaf discs were washed after treatment by gently shaking for several minutes in water and the abaxial side was imaged by confocal or epifluorescence microscopy (see ‘Microscopy’). Fluorescence intensity profiles were generated with ImageJ, as in [Spallek et al., (2013)] and [Bozkurt et al. (2015)] (see ‘Data analysis’).
Confocal images were obtained using a Zeiss LSM710 laser-scanning confocal microscope (Zeiss, Germany) as described in [Kang et al. (2014)]. Fluorescence was visualized as follows: GFP/FAM/fluorescein/BCECF excitation (ex) 488 nm/emission (em) 495–545 nm; TAMRA ex 561 nm/em 566–620 nm; FM4-64: ex 561 nm/em 686–758 nm. Green and red fluorescence was acquired for the same field using a sequential acquisition mode.
Fluorescence intensity profiles were generated with ImageJ (http://rsb.info.nih.gov/ij, last accessed 6 April 2017) using RGB Profiler and Color Profiler. Fluorescent puncta were manually counted in 20 μm × 20 μm confocal image areas as in [Irani et al. (2012)] and [Chaparro-Garcia et al., (2015)] and shown as a fraction ([Irani et al., 2012]; [Choi et al., 2013]). […]

Arabidopsis plants [3] = experiment: Long-distance transport to distal tissues after infiltration of fluorescent peptide; assay type: in vivo, Arabidopsis thaliana; details: for detection within cells in distal part of infiltrated leaf: 10 μM infiltrated, 2 h, confocal microscopy
Protocol: A 5–10 μM water solution of FAM–flg22 was pressure infiltrated with a 1 ml blunt syringe into a part or all of one leaf of 4-week-old soil-grown plants and distal tissues were examined by epifluorescence and confocal microscopy after 2 and 16 h, respectively. FAM–Y-flg22 was used in some experiments with similar results.
as §1

[4] = system: detached Arabidopsis leaf; experiment: Movement across a leaf blade; details: 1 h, epifluorescence
Protocol: A 5 μl drop of water solution of 10 μM FAM–flg22 or FAM–scrambled peptide was placed on the abaxial side of a detached Arabidopsis leaf in a humid chamber. […] Excess peptide was removed after 0.5 h, leaf surface was washed with water and epifluorescence images of the adaxial side were taken during the next 30 min (0.5–1 h after treatment).
The amount of peptide in plant cells was measured as total fluorescence per view field (integrated density) as in [Martins et al. (2015)], and was quantified with ImageJ in each channel in confocal and epifluorescence images. To allow comparison between experiments, fluorescence was calculated as a percentage of the signal in Col treated with TAMRA–flg22 or FAM–flg22. ^125I radioactivity in local and distal tissues was quantified from autoradiographs using a Cyclone Phosphorimager (Perkin Elmer) or in a scintillation counter (Packard Quantum Cobra D5002) and shown as percentage of total radioactivity in a plant. [^14C]sucrose radioactivity was quantified in a scintillation counter. Data from multiple experiments were analysed together using Prism software (GraphPad) (one-way ANOVA followed by Tukey’s test, or the t-test).

[5] = Ws (lacks FLS2) leaf discs floated on 2 μM peptide 1–2 h, 16 picture areas (20 μm × 20 μm), confocal
[6] = Ws/FLS2–GFP leaf discs floated on 2 μM peptide 1–2 h, 16 picture areas (20 μm × 20 μm), confocal
[7] = Col leaf discs, 5–10 μM peptide with FM4-64 (6–8 μM), 1–2 h, confocal
[8] = fls2 leaf discs, 5–10 μM peptide with FM4-64, 1–2 h, confocal

[125I-].[Na+] [Na^125I]
movement to distal leaves, Col versus fls2 (Arabidopsis plants [1]): the same in Col and fls2

CC[C@H](C)[C@H](NC(=O)[C@H](CCC(N)=O)NC(=O)[C@H](CC(C)C)NC(=O)CNC(=O)[C@H](C)NC(=O)[C@H](C)NC(=O)[C@H](CC(=O)O)NC(=O)[C@H](CC(=O)O)NC(=O)[C@H](CCCCN)NC(=O)[C@H](C)NC(=O)[C@H](CO)NC(=O)[C@H](CC(N)=O)NC(=O)[C@@H](NC(=O)[C@H](CCCNC(=N)N)NC(=O)[C@H](CO)NC(=O)CNC(=O)[C@@H](NC(=O)[C@H](CO)NC(=O)[C@H](CC(C)C)NC(=O)[C@H](CCCNC(=N)N)NC(=O)[C@H](CCC(N)=O)NC(=O)c1ccc2c(c1)C(=O)OC21c2ccc(N(C)C)cc2Oc2cc(N(C)C)ccc21)[C@@H](C)O)[C@@H](C)CC)C(=O)N[C@@H](C)C(=O)O [TAMRA–flg22] (5TAMRA-QRLSTGSRINSAKDDAAGLQIA-OH)
detection in local (treated) tissue (Arabidopsis plants [2]; Col, 5 μM on filter paper disc on adaxial side of one leaf of in vitro-grown plants, confocal): detected preferentially in the vascular region | detection in distal leaves and flowers (Arabidopsis plants [2]; Col, 5 μM on filter paper disc on one leaf of in vitro-grown plants, confocal): detected | movement to distal organs from mixture of peptides (Arabidopsis plants [2]; WT Col, 5 μM TAMRA–flg22 + 10 μM FAM–scrambled peptide on filter paper disc, confocal, n=6): moved, to a significant extent | overnight accumulation in plant cells (Arabidopsis leaf discs; Col leaf discs, 1 μM peptide with vacuolar dye BCECF (20 μM), overnight, confocal): accumulated in central vacuoles | number of overlapping red and green foci (Arabidopsis leaf discs; [5]): 0 | total number of red (Tf22) fluorescent foci (Arabidopsis leaf discs; [5]): 5 | number of foci overlapping with FLS2–GFP (Arabidopsis leaf discs; [6]): 143 | total number of red (Tf22) fluorescent foci (Arabidopsis leaf discs; [6]): 161 | internalization into vesicles (Arabidopsis leaf discs; Ws/FLS2–GFP leaf discs, 2 μM peptide, 1–2 h, confocal): found together in vesicles | initial (up to 1.5 h) uptake/binding (Arabidopsis leaf discs; bak1 versus Col): not highly affected | overnight accumulation in plant cells (Arabidopsis leaf discs; fls2 and bak1 versus Col, leaf discs floated on 1–2 μM peptide overnight, confocal, P<0.0002, n≥7): inhibited | initial (up to 1.5 h) uptake/binding (Arabidopsis leaf discs; fls2 versus Col, P<0.05, n≥6): reduced | fluorescence signal inside cells (Arabidopsis leaf discs; non-transgenic wild-type Ws control or Col fls2, 1–2 h, confocal): No fluorescence signal was observed inside the cells

CC(C)C[C@@H](C=O)NC(=O)[C@H](CC(C)C)NC(=O)[C@H](CC(C)C)NC(=O)OCc1ccccc1 [MG132, reference compound] (Cbz-Leu-Leu-Leu-aldehyde)
effect of inhibitor on long-distance movement of TAMRA–flg22 (Arabidopsis plants [2]; Col, 5 μM TAMRA–flg22 with 50 μM MG132 or 50 mM BDM on filter paper disc): prevented | effect of inhibitor on initial binding/uptake of TAMRA–flg22 (Arabidopsis leaf discs; Col leaf discs, 5 μM TAMRA–flg22 with 50 μM MG132 or 50 mM BDM added simultaneously, 1–2 h): did not prevent initial peptide binding/uptake | effect of inhibitor on overnight accumulation of TAMRA–flg22 in vacuoles (Arabidopsis leaf discs; Col leaf discs, 1–2 μM TAMRA–flg22 with 50 μM MG132 or 50 mM BDM, overnight): did not accumulate in vacuoles

O=C1OC2(c3ccc(O)cc3Oc3cc(O)ccc32)c2ccccc21 [fluorescein, reference compound]
non-specific uptake in presence of active flg22 (Arabidopsis leaf discs; confocal): did not induce uptake

CC[C@H](C)[C@H](NC(=O)CNC(=O)c1ccc2c(c1)C(=O)OC21c2ccc(O)cc2Oc2cc(O)ccc21)C(=O)N[C@H](C(=O)N[C@@H](C)C(=O)N[C@@H](CO)C(=O)N[C@@H](CCCCN)C(=O)N[C@@H](C)C(=O)N[C@@H](CC(C)C)C(=O)NCC(=O)N[C@@H](C)C(=O)N[C@@H](CC(=O)O)C(=O)N[C@@H](CC(C)C)C(=O)N[C@@H](CCCNC(=N)N)C(=O)N[C@@H](CCCNC(=N)N)C(=O)N[C@H](C(=O)N[C@@H](CC(N)=O)C(=O)N[C@@H](CCC(N)=O)C(=O)N[C@@H](CO)C(=O)N[C@@H](C)C(=O)N[C@@H](CO)C(=O)N[C@@H](CCC(N)=O)C(=O)N[C@@H](CC(=O)O)C(=O)O)[C@@H](C)CC)[C@@H](C)O [FAM–scrambled peptide] (5FAM-GITASKALGADLRRINQSASQD-OH)
detection within cells in distal part of infiltrated leaf (Arabidopsis plants [3]; Col): not detected within cells | non-specific uptake in presence of active flg22 (Arabidopsis leaf discs; confocal): not observed

CC[C@H](C)[C@H](NC(=O)[C@H](CCC(N)=O)NC(=O)[C@H](CC(C)C)NC(=O)CNC(=O)[C@H](C)NC(=O)[C@H](C)NC(=O)[C@H](CC(=O)O)NC(=O)[C@H](CC(=O)O)NC(=O)[C@H](CCCCN)NC(=O)[C@H](C)NC(=O)[C@H](CO)NC(=O)[C@H](CC(N)=O)NC(=O)[C@@H](NC(=O)[C@H](CCCNC(=N)N)NC(=O)[C@H](CO)NC(=O)CNC(=O)[C@@H](NC(=O)[C@H](CO)NC(=O)[C@H](CC(C)C)NC(=O)[C@H](CCCNC(=N)N)NC(=O)[C@H](CCC(N)=O)NC(=O)c1ccc2c(c1)C(=O)OC21c2ccc(O)cc2Oc2cc(O)ccc21)[C@@H](C)O)[C@@H](C)CC)C(=O)N[C@@H](C)C(=O)O [FAM–flg22] (5FAM-QRLSTGSRINSAKDDAAGLQIA-OH)
detection within cells in distal part of infiltrated leaf (Arabidopsis plants [3]; Col): present within vascular cells | detection in distal orthostichous leaves (Arabidopsis plants [3]; Col, 5–10 μM infiltrated into part of one leaf of soil-grown plants, 16 h, epifluorescence): detected | detection within cells in distal part of infiltrated leaf (Arabidopsis plants [3]; fls2): not detected within cells | detection in distal leaves (Arabidopsis plants [3]; fls2, 5–10 μM infiltrated into one leaf, 16 h, epifluorescence): not observed | detection on adaxial side of leaf after application to abaxial side ([4]; Col detached leaf, 5 μl drop of 10 μM peptide, three experiments, n≥5): detected | mobility across a leaf blade ([4]; fls2 and bak1 mutants, 10 μM peptide drop): reduced | number of foci overlapping with FM4-64 (Arabidopsis leaf discs; [7]): 212 | total number of green (Ff22) fluorescent foci (Arabidopsis leaf discs; [7]): 217 | co-localization with endocytic dye FM4-64 (Arabidopsis leaf discs; Col leaves, 5–10 μM peptide, 1–2 h incubation, confocal): co-localized with a subset of vesicles and MVBs | number of foci overlapping with FM4-64 (Arabidopsis leaf discs; [8]): 2 | total number of green (Ff22) fluorescent foci (Arabidopsis leaf discs; [8]): 10 | signal in cells (Arabidopsis leaf discs; fls2 mutant, 5–10 μM peptide, 1–2 h incubation, confocal): not visible
